Reference: paper PMC5487423 (2017)

What was measured:
Experiment in all cases: BLI
CCL3_MOUSE = target: T1, CCL3_MOUSE (Mus musculus)
T1 chain: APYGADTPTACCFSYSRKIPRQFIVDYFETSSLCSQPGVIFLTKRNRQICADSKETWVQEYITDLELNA

CCL4_MOUSE = target: T2, CCL4_MOUSE (Mus musculus)
T2 chain: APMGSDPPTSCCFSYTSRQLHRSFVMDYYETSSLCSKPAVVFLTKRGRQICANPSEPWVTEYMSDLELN

CCL7 = CCL7 (human, UniProt P80098 24-99)
CCL13_HUMAN = CCL13_HUMAN (Homo sapiens)
CCL18_HUMAN = target: T3, CCL18_HUMAN (Homo sapiens)
T3 chain: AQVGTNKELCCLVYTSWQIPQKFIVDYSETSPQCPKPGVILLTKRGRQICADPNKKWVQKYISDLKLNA

CCL2 = CCL2 (human, UniProt P13500 24-99)
CCL5 = target: T4, CCL5 (human, UniProt P13501 24-91)
T4 chain: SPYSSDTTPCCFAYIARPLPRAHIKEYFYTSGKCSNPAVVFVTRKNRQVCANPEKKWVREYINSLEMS

CCL4_HUMAN = target: T5, CCL4_HUMAN (Homo sapiens)
T5 chain: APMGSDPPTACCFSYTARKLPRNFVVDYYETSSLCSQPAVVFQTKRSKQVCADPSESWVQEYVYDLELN

CCL4L1_HUMAN = target: T6, CCL4L1_HUMAN (Homo sapiens)
T6 chain: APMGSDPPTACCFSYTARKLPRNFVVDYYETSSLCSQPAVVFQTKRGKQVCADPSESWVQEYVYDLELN

CCL5_MOUSE = CCL5_MOUSE (Mus musculus)
CCL16_HUMAN = target: T7, CCL16_HUMAN (Homo sapiens)
T7 chain: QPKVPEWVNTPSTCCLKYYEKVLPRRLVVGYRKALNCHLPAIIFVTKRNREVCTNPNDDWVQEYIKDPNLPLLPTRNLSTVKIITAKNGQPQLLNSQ

CCL11_MOUSE = target: T8, CCL11_MOUSE (Mus musculus)
T8 chain: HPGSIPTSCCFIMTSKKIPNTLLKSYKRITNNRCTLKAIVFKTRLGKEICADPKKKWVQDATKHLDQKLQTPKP

CCL19_HUMAN = target: T9, CCL19_HUMAN (Homo sapiens)
T9 chain: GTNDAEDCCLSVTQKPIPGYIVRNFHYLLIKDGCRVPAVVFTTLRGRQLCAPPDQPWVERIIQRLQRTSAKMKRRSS

CCL22_MOUSE = target: T10, CCL22_MOUSE (Mus musculus)
T10 chain: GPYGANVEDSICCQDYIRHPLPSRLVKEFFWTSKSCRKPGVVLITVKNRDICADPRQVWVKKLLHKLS

CCL3 = target: T11, CCL3 (human, UniProt P10147 24-92)
T11 chain: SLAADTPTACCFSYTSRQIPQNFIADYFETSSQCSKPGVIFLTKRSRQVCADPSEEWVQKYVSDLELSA

CCL2_MOUSE = CCL2_MOUSE (Mus musculus)
CCL17_HUMAN = target: T12, CCL17_HUMAN (Homo sapiens)
T12 chain: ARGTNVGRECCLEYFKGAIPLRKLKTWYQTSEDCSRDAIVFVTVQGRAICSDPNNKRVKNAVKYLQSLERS

CCL22_HUMAN = target: T13, CCL22_HUMAN (Homo sapiens)
T13 chain: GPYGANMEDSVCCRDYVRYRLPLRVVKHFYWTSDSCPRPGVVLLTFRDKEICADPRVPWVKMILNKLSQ

CCL11 = CCL11 (human, UniProt P51671 24-97)
CCL24_MOUSE = target: CCL24_MOUSE
CCL9_MOUSE = target: CCL9_MOUSE
CCL8_MOUSE = target: CCL8_MOUSE
CCL19_MOUSE = target: CCL19_MOUSE
CCL6_MOUSE = target: CCL6_MOUSE
CCL27_MOUSE = target: CCL27_MOUSE
CCL23_HUMAN = target: CCL23_HUMAN
CCL12_MOUSE = target: CCL12_MOUSE
CCL27_HUMAN = target: CCL27_HUMAN
CCL15_HUMAN = target: CCL15_HUMAN

CCL11, sequence (P51671 24-97): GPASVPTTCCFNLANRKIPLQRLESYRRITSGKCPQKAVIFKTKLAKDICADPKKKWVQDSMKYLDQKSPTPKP
CCL2_MOUSE (Mus musculus), sequence (chain, as listed by the source): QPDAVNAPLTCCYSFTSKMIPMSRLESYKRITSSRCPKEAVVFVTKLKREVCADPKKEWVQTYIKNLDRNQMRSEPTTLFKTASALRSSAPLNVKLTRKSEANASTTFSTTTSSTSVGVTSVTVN
CCL7, sequence (P80098 24-99): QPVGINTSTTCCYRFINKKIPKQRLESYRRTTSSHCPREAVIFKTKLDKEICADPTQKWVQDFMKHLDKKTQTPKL
CCL2, sequence (P13500 24-99): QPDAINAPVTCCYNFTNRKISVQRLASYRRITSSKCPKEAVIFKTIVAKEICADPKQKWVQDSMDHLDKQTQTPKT
CCL5_MOUSE (Mus musculus), sequence (P30882 24-91): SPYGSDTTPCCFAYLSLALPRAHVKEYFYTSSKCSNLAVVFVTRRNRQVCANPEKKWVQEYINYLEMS
CCL13_HUMAN (Homo sapiens), sequence (chain, as listed by the source): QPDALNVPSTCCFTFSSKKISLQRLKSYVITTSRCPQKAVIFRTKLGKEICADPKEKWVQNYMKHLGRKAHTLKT

B1: P991_AMBCA, purified, C-terminal StrepII-8xHis tag (natural protein)
chain: ETGENGEGTTQPDYDNSTDYYNYEDFKCTCPAPHLNNTNGTVMKPIGCYYTCNVTRCTAPDTYPCYNLTEHQAKNLTTSPTTLCAVGNCDHGICVPNGTKELCFKAPNLEE
Question: How did the Kd (CCL3_MOUSE) turn out when B1 was run?
Answer: 2.48 nM

Question: And the Kd (CCL4_MOUSE)?
Answer: 0.401 nM

Question: What about the Kd (CCL7) of the same binder?
Answer: 0.514 nM

Question: And the Kd (CCL13_HUMAN)?
Answer: 0.419 nM

Question: And the Kd (CCL18_HUMAN)?
Answer: 0.209 nM

Question: And the Kd (CCL2)?
Answer: 12.2 nM

Question: What about the Kd (CCL5) of the same binder?
Answer: 1.47 nM

Question: And the Kd (CCL4_HUMAN)?
Answer: 5.82 nM

Question: What about the Kd (CCL4L1_HUMAN) of the same binder?
Answer: 0.827 nM

Question: What about the Kd (CCL5_MOUSE) of the same binder?
Answer: 2.12 nM

Question: And the Kd (CCL16_HUMAN)?
Answer: 1.28 nM

Question: What about the Kd (CCL11_MOUSE) of the same binder?
Answer: 1.11 nM

Question: What about the Kd (CCL19_HUMAN) of the same binder?
Answer: 14.4 nM

Question: What about the Kd (CCL22_MOUSE) of the same binder?
Answer: 8.59 nM

Question: And the Kd (CCL3)?
Answer: 1.08 nM

Question: What about the Kd (CCL2_MOUSE) of the same binder?
Answer: 24.3 nM

Question: What about the Kd (CCL17_HUMAN) of the same binder?
Answer: 7.66 nM

Question: What about the Kd (CCL22_HUMAN) of the same binder?
Answer: 3.97 nM

Question: What about the Kd (CCL11) of the same binder?
Answer: 3.43 nM

Question: What about the Kd (CCL24_MOUSE) of the same binder?
Answer: 3.16 nM

Question: And the Kd (CCL9_MOUSE)?
Answer: 13.3 nM

Question: What about the Kd (CCL8_MOUSE) of the same binder?
Answer: 4.83 nM

Question: And the Kd (CCL19_MOUSE)?
Answer: 4.81 nM

Question: And the Kd (CCL6_MOUSE)?
Answer: 1.52 nM

Question: What about the Kd (CCL27_MOUSE) of the same binder?
Answer: 58 nM

Question: And the Kd (CCL23_HUMAN)?
Answer: 5.58 nM

Question: What about the Kd (CCL12_MOUSE) of the same binder?
Answer: 7.47 nM

Question: What about the Kd (CCL27_HUMAN) of the same binder?
Answer: 38.9 nM

Question: And the Kd (CCL15_HUMAN)?
Answer: 159 nM
